Results reported in the domain aggregation screens of Martell et al. (2025).

assay: soluble fraction after stress (log2 fold change); higher = more stays soluble; pooled small domains, quantitative proteomics; conditions: stress: 50 degC
Outline: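 The measure of aggregation propensity here is the base-two logarithm of the fold change in the soluble amount of each protein after stress. A higher value means more of that protein stays in solution. Stress was applied at 50°C to pooled libraries of small protein domains, read out by high-throughput quantitative proteomics.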

| Sequence | soluble fraction (log2) |
| --- | --- |
| HMNIFKLYEENIGPLTPMIADILKEDEAEFPDYWIREAIEIAVKKNARNWKYVHAVLESWQKE | -3.38 |
| HMKDESYALGTRLLSHALGKTKLEDLAQEKIDEVVQQSGNKTLEQLLTNIGLGNALSIGIARQLT | 0.383 |
| HMAVIILDEPTLGLDPAVRISLWQAIQSARDSTMSAFLITTHYIKEVADYLSAVKILDHGREVASGNPSAL | -0.302 |
| HMSREEFLAGLEEALAGEVPASVIRENLNYYNSYISQEMAKGRTVDEIVDEIGEPRIVARTIIDSSEAAGE | 0.0724 |
| HMHAEEIAREAKEALERGEEFHFAGITVRSEEALEFLEEWLRKFF | -0.659 |
| HMRIEYYDDEELDRYIGTPASGYREAAVEEFREILLTLDADDVPGWVRSLQLRGIEFPESLRPELYL | -0.575 |
| HMPSLAVYPNPVKDILNIATDKPVHSIRIYNVYGSEVLRAADTNRIDVSHLPAGVYMVSADGKVTRIIK | -0.462 |
| HMSDPASLQRRLMSDPELTARILDSPFTRSLLDDPNLLRQMVNANPQLRRAMDANPQLRHAL | -0.21 |
| HMTSLSYINDLVTGATAQGLYRIVVPNQFMDDNMANVLRRTYGYQVQSRTSLMGTFDDYIISWAPPM | -2.45 |
| HMLMYAQDEKEEASNNIPYRLLHMSFTKEQKAELQRAMDVRVPKDIILSYFYPDTPVARMMEIRRQYESA | -0.472 |
| HMAFGTGTVTASSLRVREDASTSAATLDTLSKGSKVSVLADEQDGFYKVQIGEQVGYMSAEYLDVTE | 0.0904 |
| HMVSPEVEMLRAAVETMSERQKQVYELHYLRGFNVKETAAILGMSSPTVTAHKKRIMEIIKKFFE | -1.22 |
| HMKDGMRVYITYHDSEEEPEKPIGDGTTKGWHTNSTASVVWISQKVAESADLGIWGDPIRIKGEA | -0.14 |
| HMGQVFEGTFNRKANGKNSVTPAEGGEPVFIAERNSLHAMNGDLVKVSLLAKKKHQPREAQVIEILKRSD | 0.144 |
| HMAQTTKWREIHKVKRKETIFGIARDNGLTVDELIEANPEMTKPGYELKKGDFIYIPFPSKNIDTNAGTQT | -0.157 |
| HMKNKVTVPKVEGMDKEEAIQALNEVGLGYKAVMQSSDSVAEGKVISQGTAAGKKVDKNTQIIITVSGG | 0.00222 |

| Sequence | soluble fraction (log2) |
| --- | --- |
| HMEFNDLNDDEKAILHIMYNTGEKMTTALAARITNRGRNFASKLLKSLVKKEILEWHGTSKQDRNQYYTLA | -0.0326 |
| HMLKIVRSREEVESRLYTIYGNVKGRRLYNFYLSLIIDGLDIVKARTSKNVYYTNIRNLKNAGIDFSQKIN | -2.38 |
| HMDAIIVPSVLKMKPFEAEEKLSALGLRMKINDTVYIDNMKPGVIVEQSPTAEEDVKTDRVIYVIVNA | -0.404 |
| HMNTEEKILEKEFLMLYSELGLQPKNIYELMENTGLKYEKLVEMLLQLQLKGLVEQPSYNYYSRL | -1.02 |
| HMINKDNLIEEILKFINTKIADISSNNPLFDIVAKPYISKVVTNNVSKLDKALSLIADDKGMVDADGLLT | -0.292 |
| HMKLNEQSMQVIDRIVDRHRGRPGPVKLMLHDVQKELGYIPFEAMEKIAAASGVSADEVYGVVTFYTQFTT | -0.0825 |
| HMATTPEETILEYINKNNRISKQEIADLMGITRDGVSYHIKKLRKNGLLEWIGSPSNGHWEIIE | 0.274 |
| HMSMPDERMLTSWMMARVKAAGKTMTRDAWNEFFERSNDSMDHMDMEMEKLLSYVYDKDGITLEDVEA | -0.394 |
| HMSRAMFEMHADWQPTDSIRGLLGRAGLPTDIAKLDQSRIGDFVNHWFGKPDRNTADSWNGLLVGWLKRTQ | -1.18 |
| HMSKLSLREIVKKFEEQIIQLHKRGLNHSEISREIVTKNSIDLGDSHIDSLRRAISVHLQTP | -0.0999 |
| HMKNIINFIVKEDDNNKRVDMILANHDKSLSRTRVKNLILDSKLKINERIVQDPSIKTKLNDKIELEIVEP | 0.611 |
| HMGASLVIVPGAGFLRVSASSQTRLDVYSITGMRVRSVDFEPGTTEIELPAGFYIAGGRKFFV | -1.4 |
| HMLPEGIENGDVLTRTDALDYRKWLVTGNQKRIFASTASFYGENFNYSEVKAVSDRVLDAIPDGEPV | -0.0574 |
| HMKLASIGDNIHTLRKNKGLTQSQLAGKLGVNVDTISNYEKGVSTPDFDIVEKLVNIFNVDAHSLLFK | 0.127 |
| HMGKREKTKVANRQAILVAARAVFAELGYEAATVRDIIRGTDLASGTFYNYFKSKEEVFDALADDGA | -1.17 |
